Strand notation (5' to 3'): a small letter for the sugar, then the base; units joined by * are phosphorothioate-linked, units joined directly phosphodiester-linked; [ ] holds rarer units or linkages, { } end groups; capitals alone tell only the bases. m = 2'-O-methyl; r = 2'-OH (RNA)
System: mouse TTR
Assay: Serum mouse TTR (ELISA) after LNP dosing of mice with murine TTR
Format: in vivo
Details: wild type CD-1 mice; LNP 45:44:9:2, N:P 6; 1, 0.3, 0.1, 0.03, 0.01 mg/kg
Description: Unless otherwise noted, CD-1 female mice, ranging from 6-10 weeks of age were used in each study. Animals were weighed and grouped according to body weight for preparing dosing solutions based on group average weight. LNPs were dosed via the lateral tail vein in a volume of 0.2 mL per animal (approximately 10 mL per kilogram body weight). […] Body weight was measured at twenty-four hours post-administration, and animals were euthanized at various time points by exsanguination via cardiac puncture under isoflourane anesthesia. Blood was collected into serum separator tubes or into tubes containing buffered sodium citrate for plasma as described herein. […]
Blood was collected and the serum was isolated as indicated. The total mouse TTR serum levels were determined using a Mouse Prealbumin (Transthyretin) ELISA Kit (Aviva Systems Biology, Cat. OKIA00111); rat TTR serum levels were measured using a rat specific ELISA kit (Aviva Systems Biology catalog number OKIA00159); human TTR serum levels were measured using a human specific ELISA kit (Aviva Systems Biology catalog number OKIA00081); each according to manufacture's protocol. […] The absorbance of the contents was measured on the Spectramax M5 plate reader with analysis using SoftmaxPro version 7.0 software. […]

B1: G000502: TTR Cyno specific sgRNA modified sequence, SEQ ID NO: 114; guide sequence of CR000689; cross homologous between mouse and cyno (nucleic acid)
guide: mA*mC*mA*rCrArArArUrArCrCrArGrUrCrCrArGrCrGrGrUrUrUrUrArGrAmGmCmUmAmGmAmAmAmUmAmGmCrArArGrUrUrArArArArUrArArGrGrCrUrArGrUrCrCrGrUrUrArUrCrAmAmCmUmUmGmAmAmAmAmAmGmUmGmGmCmAmCmCmGmAmGmUmCmGmGmUmGmCmU*mU*mU*mU
serum mouse TTR levels, dose response: dose response
